This is an account of results in patent publication US20060147922.

This series has as its system chk2, endogenous (HEK 293 and MCF-7 cell extracts).

Sequence of chk2, endogenous (HEK 293 and MCF-7 cell extracts) (chain, as listed by the source): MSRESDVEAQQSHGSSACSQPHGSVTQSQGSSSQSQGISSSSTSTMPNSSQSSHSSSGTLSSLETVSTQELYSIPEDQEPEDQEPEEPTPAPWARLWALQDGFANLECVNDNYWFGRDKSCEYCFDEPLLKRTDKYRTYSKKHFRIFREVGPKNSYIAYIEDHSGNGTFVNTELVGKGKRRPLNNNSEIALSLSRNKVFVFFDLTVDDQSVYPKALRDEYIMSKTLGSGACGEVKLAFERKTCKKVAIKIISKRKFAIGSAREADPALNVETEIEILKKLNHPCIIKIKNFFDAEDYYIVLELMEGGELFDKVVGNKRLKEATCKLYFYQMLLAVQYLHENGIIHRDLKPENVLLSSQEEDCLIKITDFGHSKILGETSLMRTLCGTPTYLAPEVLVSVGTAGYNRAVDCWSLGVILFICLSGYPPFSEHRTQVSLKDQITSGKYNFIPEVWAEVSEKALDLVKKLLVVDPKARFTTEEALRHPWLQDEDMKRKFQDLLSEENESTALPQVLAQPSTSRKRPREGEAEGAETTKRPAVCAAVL

As to EDD protein, full length (aa 1-2799), the “CHK2 kinase activity towards a GST-cdc25C substrate post-IR in the presence and absence of EDD” value is “activation of CHK2 was delayed in cells lacking EDD and these cells were impaired in their ability to reach maximal CHK2 kinase activity”; the “DNA damage-induced phosphorylation of CHK2 on T68 after EDD depletion by RNA interference” value was “considerably diminished compared to control cells”.
